Measured values: the supplement of paper PMC10567573

B1: FAM50A (parent)
chain: KKREKQREQMEQMKQRIAEENIMK

Variants of: B1
Assay: protein stability index of a GFP-peptide fusion (GPS, HEK-293T) (PSI 1-6); higher = more stable
Settings: c terminus: a fixed tail appended
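Note: lentivirally expressed fusions sorted by FACS into six bins by GFP to DsRed ratio, PSI derived from sequencing read proportions per bin multiplied by bin number.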

| Variant | protein stability index |
| --- | --- |
| M10N | 4.9 |
| M10A | 4.92 |
| M10Y | 4.61 |
| M10H | 5.16 |
| M10I | 4.7 |
| M10L | 4.07 |
| M10R | 5.14 |
| M10V | 4.37 |
| M10E | 5.14 |
| M10G | 5.19 |
| M10P | 5.15 |
| M10Q | 4.86 |
| M10T | 4.69 |
| M10C | 4.86 |
| M10F | 4.15 |
| M10K | 4.71 |
| M10S | 4.89 |
| M10D | 4.81 |
| M10W | 4.7 |
| I17Y | 4.46 |
| I17T | 5.3 |
| I17R | 4.77 |
| I17A | 5.39 |
| I17K | 4.25 |

| Variant | protein stability index |
| --- | --- |
| I17E | 5.1 |
| I17D | 5.3 |
| I17F | 5.12 |
| I17G | 5.41 |
| I17Q | 5.44 |
| I17M | 4.87 |
| I17L | 4.92 |
| I17W | 4.25 |
| I17S | 5.3 |
| I17N | 5.2 |
| I17H | 5.02 |
| I17P | 5.52 |
| I17V | 4.87 |
| I17C | 4.37 |
| K14Y | 4.39 |
| K14E | 5.01 |
| K14L | 4.11 |
| K14D | 5.02 |
| K14G | 5.02 |
| K14I | 4.05 |
| K14V | 4.63 |
| K14W | 3.9 |
| K14A | 5.21 |
| K14R | 4.59 |

| Variant | protein stability index |
| --- | --- |
| K14H | 5.01 |
| K14F | 4.32 |
| K14M | 4.53 |
| K14C | 4.57 |
| K14T | 4.3 |
| K14P | 5.67 |
| K14Q | 5.15 |
| K14N | 4.86 |
| K14S | 5.06 |
| R16P | 5.19 |
| R16T | 5.01 |
| R16F | 4.52 |
| R16D | 5.56 |
| R16C | 4.81 |
| R16K | 4.83 |
| R16E | 5.53 |
| R16N | 4.67 |
| R16G | 5.32 |
| R16A | 5.42 |
| R16V | 5.02 |
| R16I | 4.71 |
| R16Q | 4.97 |
| R16W | 3.94 |
| R16Y | 5.15 |

| Variant | protein stability index |
| --- | --- |
| R16L | 4.51 |
| R16M | 4.89 |
| R16H | 5.09 |
| R16S | 5.52 |
| M13D | 5.13 |
| M13E | 5.5 |
| M13I | 4.29 |
| M13T | 5.31 |
| M13L | 5.37 |
| M13S | 5.31 |
| M13R | 5.08 |
| M13F | 4.67 |
| M13H | 4.65 |
| M13P | 4.99 |
| M13N | 5.21 |
| M13K | 4.77 |
| M13W | 2.63 |
| M13G | 5.27 |
| M13C | 5.03 |
| M13Q | 5.26 |
| M13Y | 3.98 |
| M13A | 4.95 |
| M13V | 4.82 |
| Q6W | 3.96 |

| Variant | protein stability index |
| --- | --- |
| Q6Y | 4.14 |
| Q6L | 4.13 |
| Q6T | 4.9 |
| Q6M | 4.62 |
| Q6P | 4.57 |
| Q6I | 4.67 |
| Q6D | 5.06 |
| Q6G | 4.62 |
| Q6H | 4.7 |
| Q6E | 4.81 |
| Q6N | 5.3 |
| Q6F | 4.13 |
| Q6C | 4.17 |
| Q6K | 4.67 |
| Q6S | 4.96 |
| Q6A | 4.48 |
| Q6V | 4.49 |
| R3M | 5.04 |
| R3F | 4.61 |
| R3G | 5.18 |
| R3A | 5.17 |
| R3S | 4.78 |
| R3H | 4.65 |
| R3Y | 4.04 |

| Variant | protein stability index |
| --- | --- |
| R3D | 5.11 |
| R3P | 5.26 |
| R3N | 5.08 |
| R3T | 5.2 |
| R3V | 5.21 |
| R3I | 5.16 |
| R3C | 4.91 |
| R3W | 4.25 |
| R3L | 4.93 |
| R3Q | 5.48 |
| R3E | 5.29 |
| R3K | 5.06 |
| Q15E | 5.51 |
| Q15S | 4.9 |
| Q15V | 4.36 |
| Q15T | 4.85 |
| Q15Y | 4.14 |
| Q15I | 4.51 |
| Q15G | 4.68 |
| Q15P | 4.9 |
| Q15W | 4.29 |
| Q15M | 4.5 |
| Q15H | 4.84 |
| Q15C | 4.19 |

| Variant | protein stability index |
| --- | --- |
| Q15L | 4.7 |
| Q15R | 4.73 |
| Q15D | 5.02 |
| Q15F | 4.44 |
| Q15N | 4.8 |
| Q15A | 4.67 |
| Q15K | 4.4 |
| A18P | 4.79 |
| A18I | 4.36 |
| A18Y | 4.43 |
| A18L | 4.72 |
| A18G | 4.64 |
| A18W | 4.09 |
| A18T | 4.59 |
| A18Q | 5.31 |
| A18M | 4.12 |
| A18C | 4.35 |
| A18H | 4.19 |
| A18R | 4.39 |
| A18V | 4.69 |
| A18E | 4.62 |
| A18K | 3.97 |
| A18N | 4.93 |
